Data as given in the supplement of paper PMC10567573.

B1: CAMK2A (parent)
chain: CIQQILEAVLHCHQMGVVHRDLKP
B2: TEKT4 (parent)
chain: SEVEELNMSLTALREKLLEAEQSL

Variants of: B1
Experiment: protein stability index of a GFP-peptide fusion (GPS, HEK-293T) (PSI 1-6); higher = more stable
Conditions: c terminus: a fixed tail appended
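Also: lentivirally expressed fusions sorted by FACS into six bins by GFP to DsRed ratio, PSI derived from sequencing read proportions per bin multiplied by bin number.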

Protein stability index of substitutions, site by site:
C1: I 3.46, R 2.22, V 2.22, D 2.12, M 4.15, Q 1.13, W 1.78, F 3.55, K 2.82, H 1.56, Y 2.37, T 2.82, L 3.19
Q3: H 3.11, C 3.04, D 3.17, A 3.85, G 3.91, F 2.24
I2: R 2.21, E 1.78, A 2.45, S 1.56, T 1.79, Q 1.72, P 2.07, V 2.74, W 1.35, K 1.22, C 3.15, D 2.09, N 1.32, G 1.99, H 1.68

Variants of: B2
Experiment: as above
Conditions: c terminus: a fixed tail appended

Protein stability index, by site and new letter:
E19: V 3.66, L 2.39, C 3.04, I 2.31, P 4.07, G 3.95
E21: D 4.83, N 3.34, I 2.06, F 2.62, K 3.42, H 3.06, L 2.81, R 3.26
E4: R 2.02, V 2.58, A 1.86, W 1.68, L 2.26, D 2.63
L10: F 3.23, N 4.09, K 3.73, I 1.9, V 2.25, T 3.29
L24: P 4.99, F 4.51, I 3.1
R14: F 2.42, L 2.05, G 4.19, P 5.3, Y 2.46, C 3.37, E 4.63
A20: T 4.26, C 4, H 3.93, M 3.73
S23: W 2.75, T 2.77, F 2.48, K 3.17
L17: E 5.46, P 5.42, M 2.51, N 4.89, S 4.9, R 3.69, H 5.01
S1: C 2.63, E 3.28, I 2.37, Y 2.31
M8: L 3.36, S 2.81, D 3.5, Q 2.56, H 2.96, K 2.77, C 2.27
L18: R 3.67, E 5.08, P 5.43, V 3.94
T11: P 3.31, H 2.5, K 3.15, F 1.76, W 2.09, D 4.13
A12: V 3.06, D 3.48, N 1.73
N7: E 2.56, Q 2.67, P 3.42, M 2.31, V 1.95, K 2.84
K16: Q 2.83, F 1.99, C 3.24, R 3.06, S 3.74
E2: Y 1.68, V 2.45, W 1.98, K 2.19, G 2.31, A 2.84, R 3.06
L6: N 3.89, M 3.47
E15: R 3.11, L 2.1, K 3.38, I 2.62, T 2.44, F 2.27, N 2.54
S9: N 3.06, M 2.4, G 2.61, P 2.85, F 2.28, H 3.28
Q22: C 2.37, S 3.44, G 3.6, V 2.23, I 1.72
E5: G 2.73, P 2.63, Q 2.72, L 2.43, D 2.63, C 2.31, N 2.63, I 1.95
L13: M 3.32, K 4.76, N 4.87, I 4.14, Y 4.34, F 4.49
V3: F 2.83, A 3.61, D 3.64, C 3.39, H 3.29, M 2.63
